Laboratory results as given in paper PMC2275076 (Nucleic Acids Research, 2007).

Target: the molecule itself
Experiment: SEC

B1: Methanococcus maripaludis O-phosphoseryl-tRNA:selenocysteinyl-tRNA synthase (SepSecS) (enzyme, UniProt Q6LZM9 1-436, looked up)
chain: MLDFNIEGLIPKNMEKRGELVLNEYLKEIEDVFNHRKIPENGIDDEKIKLFLKFLSMMDTDKDPKSVRIGEREARTYSKIHEELSSGFCHGIGRSGNLVDPQPKASGASIMYALTNKILESFFKQLGLNVHAIATPISTGMSISLCLSAARKKYGSNVVIYPYASHKSPIKAVSFVGMNMRLVETVLDGDRVYVPVEDIENAIKKEIELGNRPCVLSTLTFFPPRNSDDIVEIAKICENYDIPHIINGAYAIQNNYYLEKLKKAFKYRVDAVVSSSDKNLLTPIGGGLVYSTDAEFIKEISLSYPGRASATPVVNTLVSLLSMGSKNYLELVKNQKNSKKLLDELLNDLSKKTGGKFLDVESPIASCISVNSDPVEIAAKLYNLRVTGPRGIKKTDHFGNCYLGTYTHDYIVMNAAIGVRTEDIVNSVSKLEKILL
modifications: selenomethionine-labeled; PLP covalently bound via a Schiff base to Lys278
- stoichiometry N: 4
